Assays:
[1] = molecular target: T1, canine PD-L1 on cPD-L1-EGFP expressing COS-7 cells (canine, UniProt E2RKZ5 19-289); experiment: flow cytometry (section 2.5)
T1 construct: Transient expression in COS-7 cells; also called canine PD-L1 expressing cells; cPD-L1-EGFP expressing cell
T1 sequence: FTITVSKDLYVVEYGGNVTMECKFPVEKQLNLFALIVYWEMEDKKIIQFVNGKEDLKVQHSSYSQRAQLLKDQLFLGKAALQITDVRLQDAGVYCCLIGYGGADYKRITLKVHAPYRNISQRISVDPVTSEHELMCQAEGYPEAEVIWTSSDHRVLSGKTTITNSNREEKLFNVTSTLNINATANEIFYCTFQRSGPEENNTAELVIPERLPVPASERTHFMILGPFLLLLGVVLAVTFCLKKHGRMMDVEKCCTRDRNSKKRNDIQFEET
Protocol: In order to identify rat anti-bovine PD-L1 monoclonal antibody showing cross-reactivity with canine PD-L1, flow cytometry was performed using the anti-bovine PD-L1 antibody prepared in 2.1 above. The anti-bovine PD-L1 antibody (10 μg/ml) was reacted with 2×10⁵-1×10⁶ cells at room temperature for 30 min. After washing, the anti-bovine PD-L1 antibody was detected with allophycocyanine-labeled anti-rat Ig goat antibody (Beckman Coulter). FACS Verse (Becton, Dickinson and Company) was used for analysis. As negative controls, rat IgG2a (κ) isotype control (BD Biosciences), rat IgG1 (κ) isotype control (BD Biosciences) and rat IgM (κ) isotype control (BD Biosciences) were used. For every washing operation and dilution of antibodies, 10% inactivated goat serum-supplemented PBS was used (MaekawaN, Konnai S, Ikebuchi R, Okagawa T, Adachi M, Takagi S, KagawaY, Nakajima C, Suzuki Y, Murata S, Ohashi K. PLoS One. 2014 Jun. 10; 9(6):e98415 which is an article describing the use of three bovine PD-L1 monoclonal antibodies: 4G12 (Rat IgG2a (κ)), 5A2 (Rat IgG1 (κ)) and 6G7 (Rat IgM (κ)).

canine PD-L1-His = molecular target: T2, canine PD-L1-His (canine); experiment: SPR (Biacore X100), cPD-L1-His captured by anti-histidine antibody on a CM5 chip, antibody as analyte
T2 construct: extracellular domain; Made in Expi293F cells; also called cPD-L1-His
Protocol: Using a biomolecular interaction analyzer (Biacore X100), the binding avidities to cPD-L1-His of rat anti-bovine PD-L1 monoclonal antibody 4G12 and rat-canine chimeric anti-PD-L1 antibody c4G12 were assessed. Briefly, anti-histidine antibody was fixed on CM5 censor chip, followed by capturing of cPD-L1-His. Subsequently, monoclonal antibodies were added as analyte to observe specific binding. […] Further, the binding avidities of canine PD-1-Ig and CD80-Ig to cPD-L1-His were measured in the same manner and found to be clearly lower than that of rat-canine chimeric anti-PD-L1 antibody c4G12 (Table 1).

[2] = molecular target: T1, canine PD-L1 on cPD-L1-EGFP expressing …; experiment: flow cytometry on canine PD-L1 expressing cells
bovine FcγRI-His = molecular target: T3, bovine FcγRI-His (bovine); experiment: ELISA: antibody immobilized at 1.56 to 50 nM, bovine FcγRI-His added at 10 µg/ml, detection with anti-polyhistidine antibody and HRP anti-mouse IgG [A]
T3 construct: extracellular domain; Made in Expi293F cells; also called soluble bovine FcγRI
Protocol: (§1) Subsequently, each well was washed with 200 μl of 0.05% Tween 20-supplemented PBS (PBS-T) five times, followed by blocking with SuperBlock (PBS) Blocking Buffer (Thermo Fisher Scientific) at 37° C. for 30 min. Each well was washed again in the same manner. Then, bovine FcγRI-His, FcγRII-His, FcγRIII-His or Fcγ2R-His was added to each well at a final concentration of 10 μg/ml and reacted at 37° C. for 1 hr. After washing, anti-polyhistidine tag mouse monoclonal antibody (Abcam) was reacted at 37° C. for 30 min. Subsequently, each well was washed, and horseradish peroxidase-labeled anti-mouse IgG goat polyclonal antibody (MP Biomedicals) was reacted at 37° C. for 30 min. Each well was washed again, and then TMB One Component Substrate (Bethyl) was added for coloring. Thereafter, the enzyme reaction was terminated with 0.18 M dilute sulfuric acid, and absorbance (450 nm) was measured with Microplate Reader MTP-900 (Corona Electric).

bovine PD-1-His = molecular target: T4, bovine PD-1-His (bovine); experiment: SPR (Biacore X100), bovine PD-1-His immobilised on a CM5 chip, antibody as analyte, single kinetics, 3 repeats
T4 construct: extracellular domain; Made in Expi293F cells; also called soluble bovine PD-1-His; PD-1 protein
Protocol: The binding avidities to bovine PD-1 of rat anti-bovine PD-1 antibody 5D2 and rat-bovine chimeric anti-bovine PD-1 antibody ch5D2 were measured by surface plasmon resonance using a biomolecular interaction analyzer (Biacore X100). Briefly, bovine PD-1-His (described above) was immobilized on a CM5 sensor chip (GE Healthcare) as a ligand. Subsequently, rat anti-bovine PD-1 antibody 5D2 or rat-bovine chimeric anti-bovine PD-1 antibody ch5D2 was reacted as an analyte, followed by single kinetics analysis. The experiment was repeated 3 times under the same conditions. Binding constant (kd value) and dissociation constant (ka value) were determined in each experiment, and binding avidity (KD value) was obtained.

bovine FcγRII-His = molecular target: T5, bovine FcγRII-His (bovine, UniProt Q28110 43-225); experiment: ELISA: antibody immobilized at 1.56 to 50 nM, bovine FcγRII-His added at 10 µg/ml [B]
T5 construct: extracellular domain; Made in Expi293F cells; also called soluble bovine FcγRII
T5 sequence: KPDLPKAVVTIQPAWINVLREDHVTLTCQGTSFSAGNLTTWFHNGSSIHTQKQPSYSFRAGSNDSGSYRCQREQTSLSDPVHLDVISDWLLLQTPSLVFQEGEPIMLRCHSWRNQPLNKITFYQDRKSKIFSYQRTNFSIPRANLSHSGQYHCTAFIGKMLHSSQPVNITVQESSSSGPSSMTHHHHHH
Protocol: as §1

B1: rat anti-bovine PD-L1 monoclonal antibody 4G12 (antibody, V domains shown)
VH: QVQLQQSGAELVKPGSSVKISCKASGYTFTSNFMHWVKQQPGNGLEWIGWIYPEYGNTKYNQKFDGKATLTADKSSSTAYMQLSSLTSEDSAVYFCASEEAVISLVYWGQGTLVTVSS
VL: DIAITQSPSSVAVSVGETVTLSCKSSQSLLYSENQKDYLGWYQQKPGQTPKPLIYWATNRHTGVPDRFTGSGSGTDFTLIISSVQAEDLADYYCGQYLVYPFTFGPGTKLELK
For B1, the binding result [1] was “binds” and the kon (canine PD-L1-His) was 2.42e+06 M⁻¹ s⁻¹.

B2: rat-canine chimeric anti-PD-L1 antibody c4G12 (antibody, V domains shown)
VH: QVQLQQSGAELVKPGSSVKISCKASGYTFTSNFMHWVKQQPGNGLEWIGWIYPEYGNTKYNQKFDGKATLTADKSSSTAYMQLSSLTSEDSAVYFCASEEAVISLVYWGQGTLVTVSS
VL: DIAITQSPSSVAVSVGETVTLSCKSSQSLLYSENQKDYLGWYQQKPGQTPKPLIYWATNRHTGVPDRFTGSGSGTDFTLIISSVQAEDLADYYCGQYLVYPFTFGPGTKLELKQ
notes: 4G12 variable regions on canine IgG-D (equivalent to human IgG4) heavy and canine lambda light constant regions
With B2 the binding result [2] was “binds” and the kon (canine PD-L1-His) was 3.14e+06 M⁻¹ s⁻¹.

B3: rat-bovine chimeric anti-bovine PD-1 antibody ch5D2 having wild-type bovine IgG1 (IgG1 WT) (antibody)
heavy: QVQLKETGPGLVQPTQTLSITCTVSGFSLTSYYIQWVRQTPGKGLEWMGFIRSGGSTEYNSEFKSRLSINRDTSKNQVFLKMNSLKTEDTGVYYCARTSSGYEGGFDYWGQGVMVTVSSASTTAPKVYPLSSCCGDKSSSTVTLGCLVSSYMPEPVTVTWNSGALKSGVHTFPAVLQSSGLYSLSSMVTVPGSTSGQTFTCNVAHPASSTKVDKAVDPTCKPSPCDCCPPPELPGGPSVFIFPPKPKDTLTISGTPEVTCVVVDVGHDDPEVKFSWFVDDVEVNTATTKPREEQFNSTYRVVSALRIQHQDWTGGKEFKCKVHNEGLPAPIVRTISRTKGPAREPQVYVLAPPQEELSKSTVSLTCMVTSFYPDYIAVEWQRNGQPESEDKYGTTPPQLDADSSYFLYSKLRVDRNSWQEGDTYTCVVMHEALHNHYTQKSTSKSAGK
light: DVVLTQTPVSLSVTLGDQASISCRSSQSLEYSDGYTYLEWYLQKPGQSPQLLIYGVSNRFSGVPDRFIGSGSGTDFTLKISRVEPEDLGVYYCFQATHDPDTFGAGTKLELKQPKSPPSVTLFPPSTEELNGNKATLVCLISDFYPGSVTVVWKADGSTITRNVETTRASKQSNSKYAASSYLSLTSSDWKSKGSYSCEVTHEGSTVTKTVKPSECS
notes: Made in Expi293F cells; also called ch5D2 IgG1 WT
B3 was tested, and the “EC50 (read off the curve)” value (bovine FcγRI-His) was roughly 9 nM.

B4: rat-bovine chimeric anti-bovine PD-1 antibody ch5D2 (mutated bovine IgG1, IgG1 ADCC-) (antibody)
heavy: QVQLKETGPGLVQPTQTLSITCTVSGFSLTSYYIQWVRQTPGKGLEWMGFIRSGGSTEYNSEFKSRLSINRDTSKNQVFLKMNSLKTEDTGVYYCARTSSGYEGGFDYWGQGVMVTVSSASTTAPKVYPLSSCCGDKSSSTVTLGCLVSSYMPEPVTVTWNSGALKSGVHTFPAVLQSSGLYSLSSMVTVPGSTSGQTFTCNVAHPASSTKVDKAVDPTCKPSPCDCCPPPPVAGPSVFIFPPKPKDTLTISGTPEVTCVVVDVGHDDPEVKFSWFVDDVEVNTATTKPREEQFNSTYRVVSALRIQHQDWTGGKEFKCKVHNEGLPSSIVRTISRTKGPAREPQVYVLAPPQEELSKSTVSLTCMVTSFYPDYIAVEWQRNGQPESEDKYGTTPPQLDADSSYFLYSKLRVDRNSWQEGDTYTCVVMHEALHNHYTQKSTSKSAGK
light: DVVLTQTPVSLSVTLGDQASISCRSSQSLEYSDGYTYLEWYLQKPGQSPQLLIYGVSNRFSGVPDRFIGSGSGTDFTLKISRVEPEDLGVYYCFQATHDPDTFGAGTKLELKQPKSPPSVTLFPPSTEELNGNKATLVCLISDFYPGSVTVVWKADGSTITRNVETTRASKQSNSKYAASSYLSLTSSDWKSKGSYSCEVTHEGSTVTKTVKPSECS
notes: 5D2 variable regions on bovine IgG1 (modified from X62916); also called ch5D2 IgG1 ADCC-
With B4 the Kd (bovine PD-1-His) was 10.5 nM, the koff (bovine PD-1-His) was 0.000216 s⁻¹ and the kon (bovine PD-1-His) was 20700 M⁻¹ s⁻¹. B4: no binding (tested: 50 nM) (bovine FcγRII-His).
